Consider 1 sequence from patent publication US20200048693.

This data set relates to dsDNase (shrimp double strand-specific DNase). Description: cleavage_in_vitro. The settings on record: DNA strand of hybrid cleaved, RNA strand almost not; First-Strand buffer, 37 C.

In turn, “CGCCATCGGAGGTTC / GAACCUCCGAUGGCG [RNA-DNA hybrid dual probe]” registered a relative cleavage activity (fraction of dsDNA activity) of 0.5.
